Measurements as given in the supplement of paper PMC12042874.
± gives the uncertainty stated by the source.

Experiment: amyloid nucleation score (Sup35N fusion, yeast selection) (log enrichment); library NNK2; higher = more nucleation; inactive = no reads after selection
Procedure, shortened: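 Sup35N was fused to peptides of 20 random codons and expressed in psi-negative yeast, which were induced with 100 μM copper sulfate for 24 hours and then grown on medium lacking adenine and uracil for 7 days at 30°C. Plasmid inserts from input and output were sequenced on Illumina. The nucleation score is the DiMSum log enrichment of output over input reads, centred on the mode score of non-aggregating sequences. Sequences with under 100 input reads were left out, and random libraries had three technical output replicates.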

Row | Substance | amyloid nucleation score
1 | TANKLLVSIIKIEEYVSRGT | 4.73 ± 0.058
2 | ITWNIVGGHFS | -0.412 ± 1.1
3 | SHLCHLGGSRRTQRVVEVSS | 5.72 ± 0.064
4 | FYCWTTSDMFVRTSSIESP | 1.09 ± 0.59
5 | VYYLVCGL | 0.147 ± 0.38
6 | EVGVEGEIF | -0.56 ± 0.4
7 | ALMEKSTSNLLFCHLDCASD | 3.24 ± 0.071
8 | LGHHVQYLRFVWLWQND | 1.17 ± 0.22
9 | YSAPCGGDGESWDGFKMMEH | 0.053 ± 1.1
10 | GLSGFSPQFASATIAQSIP | 1.36 ± 0.23
11 | TTQDHFFSL | inactive
12 | FENYYGSHGDFGVYDKFNHL | inactive
13 | RMLADGVTLVPCWALQL | 0.57 ± 0.43
14 | YNFLWWSMKDT | inactive
15 | CVMGPAT | 1.02 ± 0.3
16 | IMTHLVSTR | 1.5 ± 0.3
17 | VVSPRVTGNME | 0.302 ± 0.23
18 | KGQVLWTLGCMSIFVSMTNM | 5.58 ± 0.078
19 | REGVQVIQTGLVEYKLG | -0.029 ± 0.79
20 | YWSICPCCFLVSFSDTSWKG | 8.138 ± 0.057
21 | WIARC | -0.149 ± 0.42
22 | WAFNPTELLVDAQKSRGRIW | inactive
23 | VAVTLNFLIGVIGCRGILMG | 5.482 ± 0.043
24 | SLVVPDRYVNARYCNCCYGG | 0.43 ± 0.65
25 | HDVSVLYEPTAAGWNRLLQT | 0.262 ± 0.54
26 | IYFYCGRCVSVFVHSFGMGL | 4.21 ± 0.05

Row | Substance | amyloid nucleation score
27 | FYVPSS | -0.158 ± 0.63
28 | RPLFEFWPKPPL | 2.17 ± 0.14
29 | LNLKRLLLQLFSMPMPVFHV | -0.023 ± 0.49
30 | VYLINRWVYPWEFIVHIIRV | inactive
31 | TSSMTNERDNLILV | -0.187 ± 0.42
32 | YTTQLGWWFFRGRTTLNKWV | 1.06 ± 0.61
33 | SNLNLFITYLTLSTNDR | 9.225 ± 0.042
34 | SFGENLVYCMRSIVTSPYRL | -0.364 ± 0.24
35 | DRNMRNLEIISVH | -0.091 ± 0.23
36 | SKVLKRACYGAAGPFRIVHV | 3.29 ± 0.082
37 | FCNLN | -0.02 ± 0.28
38 | PFRKDVTLPLIFVLHVLQPD | -0.191 ± 0.54
39 | YAFHSSWYADRSALLQLN | 0.434 ± 0.3
40 | QICHHIDYVFRCHDI | 0.585 ± 0.8
41 | MDNHVLKFYRNDYKE | 0.191 ± 0.65
42 | SRFCVRRLTVYRRSV | 0.43 ± 0.45
43 | TMLETLRARADLMCQVWYSV | 0.964 ± 0.4
44 | KCLFES | 0.144 ± 0.77
45 | CYRPDRPIITIDLVCVRFS | 1.9 ± 0.2
46 | LTNCRIVLSLNQARVRIESI | 0.218 ± 0.8
47 | VRSMTELGPRLVAGK | 1.45 ± 0.33
48 | YITAGFKESTSGQRQLRSWL | 2.08 ± 0.083
49 | CPLEAYLD | inactive
50 | DFIITVL | -1.05 ± 0.78
51 | DISVYSDFVLSFICADVHPS | 5.02 ± 0.04
52 | CDTLTRRFVRCNVWFQCKR | 3.96 ± 0.056

Row | Substance | amyloid nucleation score
53 | VAWVYSVLKCVSGLVG | -0.013 ± 0.4
54 | LAYCGYIHDLFGGILIKLDG | -0.081 ± 1.1
55 | ILKPDMWFKGARCDTNQLNC | -0.62 ± 0.39
56 | GIMQCFGSMRMQWCNSDKEC | 5.021 ± 0.037
57 | LGGWLNGKGDPSMTASTSAS | 0.799 ± 0.32
58 | NFNCAPFLVLYQQVGQAFSL | 6.578 ± 0.06
59 | KDNYNLNTGSSTISGHRWFA | inactive
60 | DVDFRSMCEGTFSLNDQPNR | -0.825 ± 0.78
61 | VMWDNVLSVLLVSGRVAFPM | 2.87 ± 0.099
62 | LRSYWSGIGTTGPV | 4.57 ± 0.1
63 | IMVVEQYLYYYSKVCTFFSV | inactive
64 | YCGVSLFSINTYSY | 6.94 ± 0.05
65 | SLQSSYEYINPRSLLHCSHL | -1.44 ± 0.49
66 | IPMPSCVQYYSVDYRWASLL | -1.27 ± 0.44
67 | LLASFGFRKVKIYTLPCILA | -1.15 ± 0.76
68 | TLCVAIMYMHLGYAL | 0.178 ± 0.5
69 | TSTLNRDDG | 0.367 ± 0.34
70 | IYFYKSGESFRAYPFAPGQW | -1.37 ± 0.75
71 | FCSTTAICYKGEKQ | 3.47 ± 0.14
72 | HLLLEKDPSVWLWPKNRPGS | 3.35 ± 0.088
73 | CRIQPDFRFMCLRNCGLESR | -0.855 ± 1
74 | NSRLLLTHRRISPSPWYVGV | 1.09 ± 0.16
75 | RNITVTIFCLTAHRA | 9.317 ± 0.054
76 | SWSWSMGGNFRMVWSL | 5.33 ± 0.06
77 | RYWWRVRIYFVCCVSSLDWV | 7.09 ± 0.077
78 | ECSGEHASVQVSTGLGTDVQ | 2.8 ± 0.065

Row | Substance | amyloid nucleation score
79 | MLVDVLGC | inactive
80 | SRSKGYLYGIMSAKLRCSLK | 0.206 ± 0.39
81 | NGVKGLKIMDSRSGVT | 6.043 ± 0.046
82 | MLIDSWSVAIYICLLLIQVQ | 1.34 ± 0.13
83 | SVNAIRTQGLRSRMQFMKTG | -0.394 ± 1.1
84 | MVCRFGILSYVMWRF | 0.83 ± 0.45
85 | DIMAAIYMDG | 0.715 ± 0.43
86 | SHWCIVYKGLRNVIVC | inactive
87 | IFHCGLLRALRFSSHLYWVG | 0.505 ± 0.51
88 | ICYILILYTELVRSSLPFLG | inactive
89 | TSMSYLLRFVCGFRCTYSLC | 0.854 ± 0.52
90 | WFQLRMVLTGEFEPVLERSR | 2.86 ± 0.11
91 | VKFTVFTQGQALIVPSGLL | 5.32 ± 0.084
92 | VGFLYACYFRGTAVNETGYT | 1.15 ± 0.13
93 | VKGVLPVLWMGFNKQHFINH | 0.602 ± 0.81
94 | CRLFQSQIYERYTSRCVYRF | -1.05 ± 0.79
95 | LCSWLEMGFIIRFAGIVRLD | -0.292 ± 0.54
96 | CIQIAIYGWFTDTTIRG | 6.48 ± 0.03
97 | GTCCARAIGRYGYFNCRHRM | -0.017 ± 0.34
98 | VCFML | 0.94 ± 0.52
99 | QTMVCTTISAPKSGSAWERS | 0.109 ± 0.37
100 | SDWFW | -0.664 ± 0.5
101 | GLYTKT | 0.028 ± 0.14
102 | HQMQACLVLG | 5.736 ± 0.053
103 | AKFMGLCRDKGLQLC | -0.331 ± 0.55
104 | WFHGTGSQHS | inactive

Row | Substance | amyloid nucleation score
105 | TYFLGPLVSNSLRYY | 4.027 ± 0.04
106 | ASGCLNLVCQNVCTSRSTNV | 8.954 ± 0.067
107 | DMYDLASRSKRELF | inactive
108 | TVKCLYMGNGAWKTASSVCG | 0.482 ± 0.38
109 | KFWDSDVGVGGHHV | inactive
110 | HREKAGSPSCREI | -0.347 ± 1
111 | KTSWVVYDGFRARDARSWRS | -0.245 ± 0.48
112 | LESYSQCTLTHSNCVLTDEC | 0.909 ± 0.57
113 | HSLFSIAWFVAQYMNFGPDN | 3.1 ± 0.18
114 | SSANDNLNTERDQARLVTRC | -0.013 ± 0.36
115 | LYHDEALVWNLRDVSRIYRL | 3.59 ± 0.1
116 | IKCFAMGETFLAKVVHCTCW | 4.04 ± 0.065
117 | MYDFLVKGRGVCVNLGNSTW | -1.21 ± 0.48
118 | MTLVRFSRIGALKLCLQKES | -0.337 ± 0.39
119 | IRFTKYNDGCILIMPRDVQV | -0.995 ± 0.55
120 | KKVFLTFLEFVFNAISGWWV | -0.67 ± 0.79
121 | ALMHTNGTV | -0.406 ± 1.1
122 | MFFFYKFMKDKIGN | 4.37 ± 0.051
123 | HYVERWDDAHVFYGWKSDAV | inactive
124 | YYRRNKIWSVSQQWGGIRSR | 0.596 ± 0.62
125 | PCIWGDVVL | 0.506 ± 0.41
126 | SPTCWRRRTPLIVKYRFISV | 1.15 ± 0.34
